Publication PMC12507517

Target: RelA homodimer (UniProt Q04206)
Experiment: BLI
Settings: EMSA: 10 mM Tris-HCl pH 7.5, 50 mM NaCl, 10% glycerol, 1% NP-40, 1 mM EDTA, 0.1 mg/mL salmon sperm DNA, room temp; BLI: 25 mM Tris-HCl pH 7.5, 150 mM NaCl …

Sequence of RelA homodimer (Q04206 whole entry): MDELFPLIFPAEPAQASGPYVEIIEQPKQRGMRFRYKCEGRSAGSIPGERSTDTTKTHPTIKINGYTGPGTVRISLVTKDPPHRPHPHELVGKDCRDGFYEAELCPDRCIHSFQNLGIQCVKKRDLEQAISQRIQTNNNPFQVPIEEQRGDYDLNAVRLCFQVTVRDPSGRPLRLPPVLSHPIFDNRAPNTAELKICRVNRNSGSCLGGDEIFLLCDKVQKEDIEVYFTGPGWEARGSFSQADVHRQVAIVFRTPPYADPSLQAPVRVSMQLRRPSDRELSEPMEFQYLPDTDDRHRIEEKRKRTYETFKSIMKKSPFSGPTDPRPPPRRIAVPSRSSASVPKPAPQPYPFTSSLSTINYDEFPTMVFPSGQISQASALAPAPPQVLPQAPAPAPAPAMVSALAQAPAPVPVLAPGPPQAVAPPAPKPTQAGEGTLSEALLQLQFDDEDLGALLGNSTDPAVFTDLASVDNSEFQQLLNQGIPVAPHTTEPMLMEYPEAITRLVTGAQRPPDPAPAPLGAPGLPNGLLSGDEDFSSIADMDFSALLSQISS

STX11 kB (weak)
Kd: 250 nM

IFN-b1 kB (strong)
Kd: 27 nM
